In article PMC9684356:

T1: HLTF HIRAN domain (UniProt Q14527 51-171)
T1 sequence: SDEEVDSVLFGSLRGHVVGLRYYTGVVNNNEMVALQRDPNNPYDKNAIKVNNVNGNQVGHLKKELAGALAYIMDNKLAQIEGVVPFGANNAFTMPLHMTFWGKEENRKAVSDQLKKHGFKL


The binders below were run against T1, HLTF HIRAN domain (assay: fluorescence polarization).

In order of falling Kd:
1. TATAT (ssDNA) [5'-FAM-TATAT]  0.25 ± 0.1 µM
2. GTTG (ssDNA) [5'-FAM-GTTG]  0.22 ± 0.09 µM
3. TCC (ssDNA) [5'-FAM-TCC]  0.21 ± 0.07 µM
4. GTG (ssDNA) [5'-FAM-GTG]  0.18 ± 0.01 µM
5. ATATA (ssDNA) [5'-FAM-ATATA]  0.17 ± 0.06 µM
6. AAAAA (ssDNA) [5'-FAM-A5]  0.16 ± 0.04 µM
7. TTTG (ssDNA) [5'-FAM-TTTG]  0.1 ± 0.02 µM
8. ATG (ssDNA) [5'-FAM-ATG]  0.09 ± 0.01 µM
9. CTG (ssDNA) [5'-FAM-CTG]  0.06 ± 0.01 µM
10. TTG (ssDNA) [5'-FAM-TTG]  0.03 ± 0.01 µM

The binders below were run against T1, HLTF HIRAN domain (assay: competition).

In order of falling IC50:
1. TAT (ssDNA)  34.9 ± 9.2 µM
2. GCC (ssDNA)  31.8 ± 8.5 µM
3. CAG (ssDNA)  31.7 ± 3.9 µM
4. GGG (ssDNA)  20.2 ± 5.1 µM
5. TCC (ssDNA)  17.1 ± 4.8 µM
6. TGT (ssDNA)  15.5 ± 0.9 µM
7. TTC (ssDNA)  13.5 ± 0.6 µM
8. CTT (ssDNA)  10 ± 1.5 µM
9. CCT (ssDNA)  6.9 ± 0.07 µM
10. TCT (ssDNA)  6.8 ± 0.7 µM
11. GGT (ssDNA)  5.4 ± 0.2 µM
12. TTT (ssDNA)  4.3 ± 0.9 µM
13. TTA (ssDNA)  4.3 ± 0.4 µM
14. CCG (ssDNA)  3.6 ± 0.2 µM
15. TCG (ssDNA)  2.9 ± 0.3 µM
16. ATG (ssDNA)  2.9 ± 0.4 µM
17. TTG (ssDNA)  2.8 ± 0.5 µM
18. CTG (ssDNA)  2.5 ± 0.2 µM
19. TTTTT (ssDNA) [T5]  2.4 ± 0.6 µM
20. GTG (ssDNA)  2.2 ± 0.07 µM
21. TTTG (ssDNA)  2 ± 0.2 µM
22. ATTG (ssDNA)  1.8 ± 0.2 µM
23. GTTG (ssDNA)  1.7 ± 0.1 µM
24. CTTG (ssDNA)  1.6 ± 0.2 µM

Target: T1, HLTF HIRAN domain
Assay: fluorescence polarization
Remark: another data set of the same source

In the case of TTTTT (ssDNA) [5'-FAM-T5], the Kd is reported as 0.14 ± 0.03 µM.
